{
  "source": "patent US20140294898A1",
  "about": "(published 2014)",
  "note": "Positions of bridges follow the written chain, without caps; N, C: chain ends. Non-standard residues stand in square brackets, D forms with d. NMeNle = CCCC[C@H](NC)C(=O)O; NMeA = CN[C@@H](C)C(=O)O",
  "data": [
    {"target": "T1, human PD-L1 (human, UniProt Q9NZQ7 19-239, limits assumed)", "T1 construct": "also called Hu PD-L1; hPD-L1", "assay": "cell binding assay, inhibition of human PD-L1/PD-1 binding (cell format not given)", "units": {"IC50": "nM"}, "T1 sequence (Q9NZQ7 19-239 limits assumed)": "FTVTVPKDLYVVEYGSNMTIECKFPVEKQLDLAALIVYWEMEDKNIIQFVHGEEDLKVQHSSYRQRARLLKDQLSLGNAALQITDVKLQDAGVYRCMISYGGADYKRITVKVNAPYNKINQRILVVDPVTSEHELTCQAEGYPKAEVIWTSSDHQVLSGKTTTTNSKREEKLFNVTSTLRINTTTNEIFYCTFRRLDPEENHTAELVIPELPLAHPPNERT", "values": [
      {"binder": "FFAGDVFYGWYLCG (HELM PEPTIDE1{[O=C(C[*:3])[*:2]].F.[meF].[meA].[Sar].D.V.[meF].Y.[Sar].W.Y.L.C.G.[am]}$PEPTIDE1,PEPTIDE1,1:R3-14:R3$$$V2.0; SMILES CC(C)C[C@@H]1NC(=O)[C@H](Cc2ccc(O)cc2)NC(=O)[C@H](Cc2c[nH]c3ccccc23)NC(=O)CN(C)C(=O)[C@H](Cc2ccc(O)cc2)NC(=O)[C@H](Cc2ccccc2)N(C)C(=O)[C@H](C(C)C)NC(=O)[C@H](CC(=O)O)NC(=O)CN(C)C(=O)[C@H](C)N(C)C(=O)[C@H](Cc2ccccc2)N(C)C(=O)[C@H](Cc2ccccc2)NC(=O)CSC[C@@H](C(=O)NCC(N)=O)NC1=O, Variant of Compound No. 71: mNle3 to mAla)", "note": "[Compound No. 75]", "IC50": 438},
      {"binder": "FFXGDVFYGWYLCG (HELM PEPTIDE1{[O=C(C[*:3])[*:2]].F.[meF].[CCCC[C@@H](C(=O)[*:2])N(C)[*:1]].[Sar].D.V.F.Y.[Sar].W.Y.L.C.G.[am]}$PEPTIDE1,PEPTIDE1,1:R3-14:R3$$$V2.0; SMILES CCCC[C@H]1C(=O)N(C)CC(=O)N[C@@H](CC(=O)O)C(=O)N[C@@H](C(C)C)C(=O)N[C@@H](Cc2ccccc2)C(=O)N[C@@H](Cc2ccc(O)cc2)C(=O)N(C)CC(=O)N[C@@H](Cc2c[nH]c3ccccc23)C(=O)N[C@@H](Cc2ccc(O)cc2)C(=O)N[C@@H](CC(C)C)C(=O)N[C@H](C(=O)NCC(N)=O)CSCC(=O)N[C@@H](Cc2ccccc2)C(=O)N(C)[C@@H](Cc2ccccc2)C(=O)N1C, Variant of Compound No. 71: mPhe7 to Phe (N-methyl removed))", "note": "[Compound No. 82]", "IC50": 203},
      {"binder": "FFXGDVFYGWYLCG (HELM PEPTIDE1{[O=C(C[*:3])[*:2]].F.[meF].[CCCC[C@@H](C(=O)[*:2])N(C)[*:1]].[Sar].D.V.[meF].Y.[Sar].W.Y.L.C.G.[am]}$PEPTIDE1,PEPTIDE1,1:R3-14:R3$$$V2.0; SMILES CCCC[C@H]1C(=O)N(C)CC(=O)N[C@@H](CC(=O)O)C(=O)N[C@@H](C(C)C)C(=O)N(C)[C@@H](Cc2ccccc2)C(=O)N[C@@H](Cc2ccc(O)cc2)C(=O)N(C)CC(=O)N[C@@H](Cc2c[nH]c3ccccc23)C(=O)N[C@@H](Cc2ccc(O)cc2)C(=O)N[C@@H](CC(C)C)C(=O)N[C@H](C(=O)NCC(N)=O)CSCC(=O)N[C@@H](Cc2ccccc2)C(=O)N(C)[C@@H](Cc2ccccc2)C(=O)N1C, Macrocyclic peptide of the Formula II series; X = norleucine backbone (N-methylated))", "IC50": 10},
      {"binder": "FFXGDAFYGWYLCG (HELM PEPTIDE1{[O=C(C[*:3])[*:2]].F.[meF].[CCCC[C@@H](C(=O)[*:2])N(C)[*:1]].[Sar].D.A.[meF].Y.[Sar].W.Y.L.C.G.[am]}$PEPTIDE1,PEPTIDE1,1:R3-14:R3$$$V2.0; SMILES CCCC[C@H]1C(=O)N(C)CC(=O)N[C@@H](CC(=O)O)C(=O)N[C@@H](C)C(=O)N(C)[C@@H](Cc2ccccc2)C(=O)N[C@@H](Cc2ccc(O)cc2)C(=O)N(C)CC(=O)N[C@@H](Cc2c[nH]c3ccccc23)C(=O)N[C@@H](Cc2ccc(O)cc2)C(=O)N[C@@H](CC(C)C)C(=O)N[C@H](C(=O)NCC(N)=O)CSCC(=O)N[C@@H](Cc2ccccc2)C(=O)N(C)[C@@H](Cc2ccccc2)C(=O)N1C, Variant of Compound No. 71: Val6 to Ala)", "note": "[Compound No. 80]", "IC50": 723},
      {"binder": "FFXGDVFAGWYLCG (HELM PEPTIDE1{[O=C(C[*:3])[*:2]].F.[meF].[CCCC[C@@H](C(=O)[*:2])N(C)[*:1]].[Sar].D.V.[meF].A.[Sar].W.Y.L.C.G.[am]}$PEPTIDE1,PEPTIDE1,1:R3-14:R3$$$V2.0; SMILES CCCC[C@H]1C(=O)N(C)CC(=O)N[C@@H](CC(=O)O)C(=O)N[C@@H](C(C)C)C(=O)N(C)[C@@H](Cc2ccccc2)C(=O)N[C@@H](C)C(=O)N(C)CC(=O)N[C@@H](Cc2c[nH]c3ccccc23)C(=O)N[C@@H](Cc2ccc(O)cc2)C(=O)N[C@@H](CC(C)C)C(=O)N[C@H](C(=O)NCC(N)=O)CSCC(=O)N[C@@H](Cc2ccccc2)C(=O)N(C)[C@@H](Cc2ccccc2)C(=O)N1C, Variant of Compound No. 71: Tyr8 to Ala)", "note": "[Compound No. 83]", "IC50": 75}
    ]},
    {"target": "T2, hPDL1(19-239)-TVMV-His (human, UniProt Q9NZQ7 19-239)", "T2 construct": "The text says amino acids 18-239, the construct name says 19-239; also called PD-L1-His; PD-L1-TVMV-His", "assay": "HTRF competition, inhibitor titrated against PD-1-Ig binding to PD-L1-His", "method": "(§1) All binding studies were performed in an HTRF assay buffer consisting of dPBS supplemented with 0.1% (w/v) bovine serum albumin and 0.05% (v/v) Tween-20. […] PD-L1 fusion proteins from either human, cynomologous macaques, or mouse were used. HTRF detection was achieved using europium crypate-labeled anti-Ig monoclonal antibody (1 nM final) and allophycocyanin (APC) labeled anti-His monoclonal antibody (20 nM final). Antibodies were diluted in HTRF detection buffer and 5 μl was dispensed on top of binding reaction. The reaction was allowed to equilibrate for 30 minutes and signal (665 nm/620 nm ratio) was obtained using an EnVision fluorometer. […]", "units": {"IC50": "nM"}, "T2 sequence (Q9NZQ7 other isoform, or with tags, fused parts or gaps limits assumed)": "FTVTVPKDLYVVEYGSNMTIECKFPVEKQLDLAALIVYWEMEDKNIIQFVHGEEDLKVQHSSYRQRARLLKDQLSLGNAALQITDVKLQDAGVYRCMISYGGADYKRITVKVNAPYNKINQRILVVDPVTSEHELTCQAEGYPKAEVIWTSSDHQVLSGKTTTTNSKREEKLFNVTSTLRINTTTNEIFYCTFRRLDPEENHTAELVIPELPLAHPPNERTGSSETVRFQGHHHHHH", "values": [
      {"binder": "{CH2CO}-F[NMeA]NPHRSWRW[NMeNle][NMeNle]LCG-NH2 (thioether N-14; SMILES CCCC[C@H]1C(=O)N(C)[C@@H](CCCC)C(=O)N[C@@H](CC(C)C)C(=O)N[C@H](C(=O)NCC(N)=O)CSCC(=O)N[C@@H](Cc2ccccc2)C(=O)N(C)[C@@H](C)C(=O)N[C@@H](CC(N)=O)C(=O)N2CCC[C@H]2C(=O)N[C@@H](Cc2c[nH]cn2)C(=O)N[C@@H](CCCNC(=N)N)C(=O)N[C@@H](CO)C(=O)N[C@@H](Cc2c[nH]c3ccccc23)C(=O)N[C@@H](CCCNC(=N)N)C(=O)N[C@@H](Cc2c[nH]c3ccccc23)C(=O)N1C, Macrocyclic peptide; X stands for norleucine)", "note": "[Compound No. 3]", "IC50": 13},
      {"binder": "{CH2CO}-F[NMeA]NPLRSWRW[NMeNle][NMeNle]LCG-NH2 (thioether N-14; SMILES CCCC[C@H]1C(=O)N(C)[C@@H](CCCC)C(=O)N[C@@H](CC(C)C)C(=O)N[C@H](C(=O)NCC(N)=O)CSCC(=O)N[C@@H](Cc2ccccc2)C(=O)N(C)[C@@H](C)C(=O)N[C@@H](CC(N)=O)C(=O)N2CCC[C@H]2C(=O)N[C@@H](CC(C)C)C(=O)N[C@@H](CCCNC(=N)N)C(=O)N[C@@H](CO)C(=O)N[C@@H](Cc2c[nH]c3ccccc23)C(=O)N[C@@H](CCCNC(=N)N)C(=O)N[C@@H](Cc2c[nH]c3ccccc23)C(=O)N1C, Macrocyclic peptide; X stands for norleucine)", "IC50": 15}
    ]},
    {"target": "T3, hPDL1(19-239)-TVMV-His (human, UniProt Q9NZQ7 19-239)", "T3 construct": "The construct name says 19-239, the running text says amino acids 18-239; Expressed in HEK293T cells; also called PD-L1-His; PD-L1-TVMV-His", "assay": "HTRF competition, PD-1-Ig (20 nM) binding to human PD-L1-His (10 nM)", "method": "as §1\nHTRF experiments were performed essentially as outlined supra. Variant macrocyclic peptides were created as outlined herein.", "units": {"IC50": "nM"}, "T3 sequence (Q9NZQ7 other isoform, or with tags, fused parts or gaps limits assumed)": "as above", "values": [
      {"binder": "FFXGDVFYGWYLCG (HELM PEPTIDE1{[O=C(C[*:3])[*:2]].F.[meF].[CCCC[C@@H](C(=O)[*:2])N(C)[*:1]].[Sar].D.V.[meF].Y.G.W.Y.L.C.G.[am]}$PEPTIDE1,PEPTIDE1,1:R3-14:R3$$$V2.0; SMILES CCCC[C@H]1C(=O)N(C)CC(=O)N[C@@H](CC(=O)O)C(=O)N[C@@H](C(C)C)C(=O)N(C)[C@@H](Cc2ccccc2)C(=O)N[C@@H](Cc2ccc(O)cc2)C(=O)NCC(=O)N[C@@H](Cc2c[nH]c3ccccc23)C(=O)N[C@@H](Cc2ccc(O)cc2)C(=O)N[C@@H](CC(C)C)C(=O)N[C@H](C(=O)NCC(N)=O)CSCC(=O)N[C@@H](Cc2ccccc2)C(=O)N(C)[C@@H](Cc2ccccc2)C(=O)N1C, macrocyclic peptide cyclized via the ClAc moiety with the downstream cysteine; variant of Compound No. 71 (Gly instead of Sar at 9))", "note": "[Compound No. 85]", "IC50": 191}
    ]},
    {"target": "T4, human PD-L1 (human, UniProt Q9NZQ7 19-239, limits assumed)", "T4 construct": "also called Hu PD-L1; hPD-L1", "assay": "cell binding assay, inhibition of human PD-L1/PD-1 binding on cells (cell format not given)", "units": {"IC50": "nM"}, "T4 sequence (Q9NZQ7 19-239 limits assumed)": "as the sequence (Q9NZQ7 19-239 limits assumed) above", "values": [
      {"binder": "{CH2CO}-FLIVIRDRVFRCG-NH2 (thioether N-12, also called Compound 99)", "note": "[Compound No. 99]", "IC50": 1400},
      {"binder": "{CH2CO}-F[NMeA]NPLRSWRW[NMeNle][NMeNle]LCG-NH2 (thioether N-14; SMILES CCCC[C@H]1C(=O)N(C)[C@@H](CCCC)C(=O)N[C@@H](CC(C)C)C(=O)N[C@H](C(=O)NCC(N)=O)CSCC(=O)N[C@@H](Cc2ccccc2)C(=O)N(C)[C@@H](C)C(=O)N[C@@H](CC(N)=O)C(=O)N2CCC[C@H]2C(=O)N[C@@H](CC(C)C)C(=O)N[C@@H](CCCNC(=N)N)C(=O)N[C@@H](CO)C(=O)N[C@@H](Cc2c[nH]c3ccccc23)C(=O)N[C@@H](CCCNC(=N)N)C(=O)N[C@@H](Cc2c[nH]c3ccccc23)C(=O)N1C, also called Compound 4)", "IC50": 15},
      {"binder": "FFXGDVFYGWYLCG (HELM PEPTIDE1{[O=C(C[*:3])[*:2]].F.[meF].[CCCC[C@@H](C(=O)[*:2])N(C)[*:1]].[Sar].D.V.[meF].Y.[Sar].W.Y.L.C.G.[am]}$PEPTIDE1,PEPTIDE1,1:R3-14:R3$$$V2.0; SMILES CCCC[C@H]1C(=O)N(C)CC(=O)N[C@@H](CC(=O)O)C(=O)N[C@@H](C(C)C)C(=O)N(C)[C@@H](Cc2ccccc2)C(=O)N[C@@H](Cc2ccc(O)cc2)C(=O)N(C)CC(=O)N[C@@H](Cc2c[nH]c3ccccc23)C(=O)N[C@@H](Cc2ccc(O)cc2)C(=O)N[C@@H](CC(C)C)C(=O)N[C@H](C(=O)NCC(N)=O)CSCC(=O)N[C@@H](Cc2ccccc2)C(=O)N(C)[C@@H](Cc2ccccc2)C(=O)N1C, also called Compound 71)", "IC50": 10},
      {"binder": "{CH2CO}-F[NMeA]NPHHSWRW[NMeNle][NMeNle]LCG-NH2 (thioether N-14; SMILES CCCC[C@H]1C(=O)N(C)[C@@H](CCCC)C(=O)N[C@@H](CC(C)C)C(=O)N[C@H](C(=O)NCC(N)=O)CSCC(=O)N[C@@H](Cc2ccccc2)C(=O)N(C)[C@@H](C)C(=O)N[C@@H](CC(N)=O)C(=O)N2CCC[C@H]2C(=O)N[C@@H](Cc2c[nH]cn2)C(=O)N[C@@H](Cc2c[nH]cn2)C(=O)N[C@@H](CO)C(=O)N[C@@H](Cc2c[nH]c3ccccc23)C(=O)N[C@@H](CCCNC(=N)N)C(=O)N[C@@H](Cc2c[nH]c3ccccc23)C(=O)N1C, also called Compound 2)", "note": "[Compound No. 2]", "IC50": 43}
    ]}
  ]
}
